# Reference: patent US20250073311A1, “DOSAGE REGIME” (ZEALAND PHARMA A/S, priority 2021, published 2025)
# Numbered stars: 1 amine (or outer) side, 2 acyl side, 3 side chain; on linkers, the order of the positions; unused ones are H or OH. Square brackets hold non-standard residues; d marks the D form. Side chains are listed from the residue outwards. * marks the point of attachment. C20 diacid = O=C(O)CCCCCCCCCCCCCCCCCCC(=O)*; C18 diacid = O=C(O)CCCCCCCCCCCCCCCCC(=O)*; γGlu = O=C(O)[C@H](CCC(=O)[*:2])N[*:1]; AEEA = NCCOCCOCC(=O)O; Aib = CC(C)(N)C(=O)O
# T1: human GLP-2 receptor (hGLP2-R) (human, UniProt O95838)
# T1 sequence: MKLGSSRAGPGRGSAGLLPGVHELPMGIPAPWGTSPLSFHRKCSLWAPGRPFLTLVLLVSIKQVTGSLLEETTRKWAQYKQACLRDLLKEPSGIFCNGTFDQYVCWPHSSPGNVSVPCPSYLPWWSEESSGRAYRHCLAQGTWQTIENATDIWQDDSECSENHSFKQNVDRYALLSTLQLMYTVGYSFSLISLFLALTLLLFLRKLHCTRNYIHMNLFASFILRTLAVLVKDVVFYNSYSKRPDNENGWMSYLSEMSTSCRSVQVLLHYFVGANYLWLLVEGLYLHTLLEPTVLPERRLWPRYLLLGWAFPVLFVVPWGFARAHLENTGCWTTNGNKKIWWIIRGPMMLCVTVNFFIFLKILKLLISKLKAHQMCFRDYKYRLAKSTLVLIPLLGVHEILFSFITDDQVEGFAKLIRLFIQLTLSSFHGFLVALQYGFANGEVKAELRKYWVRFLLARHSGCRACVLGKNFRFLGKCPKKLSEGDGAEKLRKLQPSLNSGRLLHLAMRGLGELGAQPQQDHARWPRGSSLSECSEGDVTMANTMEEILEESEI
# B1: Compound 10 (peptide)
# peptide: H-H[Aib]EGTFSSELATILDK([γGlu-C18 diacid])LAARDFIAWLIEHKITD-OH
# SMILES: CC[C@H](C)[C@H](NC(=O)[C@H](Cc1ccccc1)NC(=O)[C@H](CC(=O)O)NC(=O)[C@H](CCCNC(=N)N)NC(=O)[C@H](C)NC(=O)[C@H](C)NC(=O)[C@H](CC(C)C)NC(=O)[C@H](CCCCNC(=O)CC[C@H](NC(=O)CCCCCCCCCCCCCCCCC(=O)O)C(=O)O)NC(=O)[C@H](CC(=O)O)NC(=O)[C@H](CC(C)C)NC(=O)[C@@H](NC(=O)[C@@H](NC(=O)[C@H](C)NC(=O)[C@H](CC(C)C)NC(=O)[C@H](CCC(=O)O)NC(=O)[C@H](CO)NC(=O)[C@H](CO)NC(=O)[C@H](Cc1ccccc1)NC(=O)[C@@H](NC(=O)CNC(=O)[C@H](CCC(=O)O)NC(=O)C(C)(C)NC(=O)[C@@H](N)Cc1c[nH]cn1)[C@@H](C)O)[C@@H](C)O)[C@@H](C)CC)C(=O)N[C@@H](C)C(=O)N[C@@H](Cc1c[nH]c2ccccc12)C(=O)N[C@@H](CC(C)C)C(=O)N[C@H](C(=O)N[C@@H](CCC(=O)O)C(=O)N[C@@H](Cc1c[nH]cn1)C(=O)N[C@@H](CCCCN)C(=O)N[C@H](C(=O)N[C@H](C(=O)N[C@@H](CC(=O)O)C(=O)O)[C@@H](C)O)[C@@H](C)CC)[C@@H](C)CC
# B2: Compound 8 (peptide)
# peptide: H-H[Aib]EGSFTSELATILDGK([γGlu-C18 diacid])AARDFIAWLIEHKITD-OH
# SMILES: CC[C@H](C)[C@H](NC(=O)[C@H](Cc1ccccc1)NC(=O)[C@H](CC(=O)O)NC(=O)[C@H](CCCNC(=N)N)NC(=O)[C@H](C)NC(=O)[C@H](C)NC(=O)[C@H](CCCCNC(=O)CC[C@H](NC(=O)CCCCCCCCCCCCCCCCC(=O)O)C(=O)O)NC(=O)CNC(=O)[C@H](CC(=O)O)NC(=O)[C@H](CC(C)C)NC(=O)[C@@H](NC(=O)[C@@H](NC(=O)[C@H](C)NC(=O)[C@H](CC(C)C)NC(=O)[C@H](CCC(=O)O)NC(=O)[C@H](CO)NC(=O)[C@@H](NC(=O)[C@H](Cc1ccccc1)NC(=O)[C@H](CO)NC(=O)CNC(=O)[C@H](CCC(=O)O)NC(=O)C(C)(C)NC(=O)[C@@H](N)Cc1c[nH]cn1)[C@@H](C)O)[C@@H](C)O)[C@@H](C)CC)C(=O)N[C@@H](C)C(=O)N[C@@H](Cc1c[nH]c2ccccc12)C(=O)N[C@@H](CC(C)C)C(=O)N[C@H](C(=O)N[C@@H](CCC(=O)O)C(=O)N[C@@H](Cc1c[nH]cn1)C(=O)N[C@@H](CCCCN)C(=O)N[C@H](C(=O)N[C@H](C(=O)N[C@@H](CC(=O)O)C(=O)O)[C@@H](C)O)[C@@H](C)CC)[C@@H](C)CC
# B3: Compound 7 (peptide)
# peptide: H-H[Aib]EGTFSSELATILDGK([γGlu-C18 diacid])AARDFIAWLIEHKITD-OH
# SMILES: CC[C@H](C)[C@H](NC(=O)[C@H](Cc1ccccc1)NC(=O)[C@H](CC(=O)O)NC(=O)[C@H](CCCNC(=N)N)NC(=O)[C@H](C)NC(=O)[C@H](C)NC(=O)[C@H](CCCCNC(=O)CC[C@H](NC(=O)CCCCCCCCCCCCCCCCC(=O)O)C(=O)O)NC(=O)CNC(=O)[C@H](CC(=O)O)NC(=O)[C@H](CC(C)C)NC(=O)[C@@H](NC(=O)[C@@H](NC(=O)[C@H](C)NC(=O)[C@H](CC(C)C)NC(=O)[C@H](CCC(=O)O)NC(=O)[C@H](CO)NC(=O)[C@H](CO)NC(=O)[C@H](Cc1ccccc1)NC(=O)[C@@H](NC(=O)CNC(=O)[C@H](CCC(=O)O)NC(=O)C(C)(C)NC(=O)[C@@H](N)Cc1c[nH]cn1)[C@@H](C)O)[C@@H](C)O)[C@@H](C)CC)C(=O)N[C@@H](C)C(=O)N[C@@H](Cc1c[nH]c2ccccc12)C(=O)N[C@@H](CC(C)C)C(=O)N[C@H](C(=O)N[C@@H](CCC(=O)O)C(=O)N[C@@H](Cc1c[nH]cn1)C(=O)N[C@@H](CCCCN)C(=O)N[C@H](C(=O)N[C@H](C(=O)N[C@@H](CC(=O)O)C(=O)O)[C@@H](C)O)[C@@H](C)CC)[C@@H](C)CC
# B4: Compound 5 (peptide)
# peptide: H-H[Aib]EGSFTSELATILDK([γGlu-C18 diacid])KAARDFIAWLIEHKITD-OH
# SMILES: CC[C@H](C)[C@H](NC(=O)[C@H](Cc1ccccc1)NC(=O)[C@H](CC(=O)O)NC(=O)[C@H](CCCNC(=N)N)NC(=O)[C@H](C)NC(=O)[C@H](C)NC(=O)[C@H](CCCCN)NC(=O)[C@H](CCCCNC(=O)CC[C@H](NC(=O)CCCCCCCCCCCCCCCCC(=O)O)C(=O)O)NC(=O)[C@H](CC(=O)O)NC(=O)[C@H](CC(C)C)NC(=O)[C@@H](NC(=O)[C@@H](NC(=O)[C@H](C)NC(=O)[C@H](CC(C)C)NC(=O)[C@H](CCC(=O)O)NC(=O)[C@H](CO)NC(=O)[C@@H](NC(=O)[C@H](Cc1ccccc1)NC(=O)[C@H](CO)NC(=O)CNC(=O)[C@H](CCC(=O)O)NC(=O)C(C)(C)NC(=O)[C@@H](N)Cc1c[nH]cn1)[C@@H](C)O)[C@@H](C)O)[C@@H](C)CC)C(=O)N[C@@H](C)C(=O)N[C@@H](Cc1c[nH]c2ccccc12)C(=O)N[C@@H](CC(C)C)C(=O)N[C@H](C(=O)N[C@@H](CCC(=O)O)C(=O)N[C@@H](Cc1c[nH]cn1)C(=O)N[C@@H](CCCCN)C(=O)N[C@H](C(=O)N[C@H](C(=O)N[C@@H](CC(=O)O)C(=O)O)[C@@H](C)O)[C@@H](C)CC)[C@@H](C)CC
# B5: Compound 9 (peptide)
# peptide: H-H[Aib]EGTFTSELATILDGK([γGlu-C18 diacid])AARDFIAWLIEHKITD-OH
# SMILES: CC[C@H](C)[C@H](NC(=O)[C@H](Cc1ccccc1)NC(=O)[C@H](CC(=O)O)NC(=O)[C@H](CCCNC(=N)N)NC(=O)[C@H](C)NC(=O)[C@H](C)NC(=O)[C@H](CCCCNC(=O)CC[C@H](NC(=O)CCCCCCCCCCCCCCCCC(=O)O)C(=O)O)NC(=O)CNC(=O)[C@H](CC(=O)O)NC(=O)[C@H](CC(C)C)NC(=O)[C@@H](NC(=O)[C@@H](NC(=O)[C@H](C)NC(=O)[C@H](CC(C)C)NC(=O)[C@H](CCC(=O)O)NC(=O)[C@H](CO)NC(=O)[C@@H](NC(=O)[C@H](Cc1ccccc1)NC(=O)[C@@H](NC(=O)CNC(=O)[C@H](CCC(=O)O)NC(=O)C(C)(C)NC(=O)[C@@H](N)Cc1c[nH]cn1)[C@@H](C)O)[C@@H](C)O)[C@@H](C)O)[C@@H](C)CC)C(=O)N[C@@H](C)C(=O)N[C@@H](Cc1c[nH]c2ccccc12)C(=O)N[C@@H](CC(C)C)C(=O)N[C@H](C(=O)N[C@@H](CCC(=O)O)C(=O)N[C@@H](Cc1c[nH]cn1)C(=O)N[C@@H](CCCCN)C(=O)N[C@H](C(=O)N[C@H](C(=O)N[C@@H](CC(=O)O)C(=O)O)[C@@H](C)O)[C@@H](C)CC)[C@@H](C)CC
# B6: Compound 11 (peptide)
# peptide: H-H[Aib]EGSFTSELATILDK([γGlu-C18 diacid])LAARDFIAWLIEHKITD-OH
# SMILES: CC[C@H](C)[C@H](NC(=O)[C@H](Cc1ccccc1)NC(=O)[C@H](CC(=O)O)NC(=O)[C@H](CCCNC(=N)N)NC(=O)[C@H](C)NC(=O)[C@H](C)NC(=O)[C@H](CC(C)C)NC(=O)[C@H](CCCCNC(=O)CC[C@H](NC(=O)CCCCCCCCCCCCCCCCC(=O)O)C(=O)O)NC(=O)[C@H](CC(=O)O)NC(=O)[C@H](CC(C)C)NC(=O)[C@@H](NC(=O)[C@@H](NC(=O)[C@H](C)NC(=O)[C@H](CC(C)C)NC(=O)[C@H](CCC(=O)O)NC(=O)[C@H](CO)NC(=O)[C@@H](NC(=O)[C@H](Cc1ccccc1)NC(=O)[C@H](CO)NC(=O)CNC(=O)[C@H](CCC(=O)O)NC(=O)C(C)(C)NC(=O)[C@@H](N)Cc1c[nH]cn1)[C@@H](C)O)[C@@H](C)O)[C@@H](C)CC)C(=O)N[C@@H](C)C(=O)N[C@@H](Cc1c[nH]c2ccccc12)C(=O)N[C@@H](CC(C)C)C(=O)N[C@H](C(=O)N[C@@H](CCC(=O)O)C(=O)N[C@@H](Cc1c[nH]cn1)C(=O)N[C@@H](CCCCN)C(=O)N[C@H](C(=O)N[C@H](C(=O)N[C@@H](CC(=O)O)C(=O)O)[C@@H](C)O)[C@@H](C)CC)[C@@H](C)CC
# Target: human glucagon-like peptide 1 receptor (GLP-1R) (human, UniProt P43220)
# Test: cell-based or functional assay
row,Binder,"EC50 GLP-1 (nM), cAMP AlphaScreen"
1,B1,1.8 nM
2,H-H[Aib]EGTFTSELATILDK([γGlu-C18 diacid])KAARDFIAWLIEHKITD-OH [Compound 6],0.058 nM
3,H-H[Aib]EGTFTSELATILDEQAAK([AEEA-AEEA-KEK-γGlu-C20 diacid])DFIAWLIEHKITD-OH [Compound 67],0.16 nM
4,H-H[Aib]EGSFTSELATILDEQAAK([AEEA-AEEA-KEK-γGlu-C20 diacid])DFIAWLIEHKITD-OH [Compound 66],0.65 nM
5,B2,0.22 nM
6,H-H[Aib]EGTFSSELATILDK([γGlu-C18 diacid])KAARDFIAWLIEHKITD-OH [Compound 4],0.66 nM
7,B3,0.92 nM
8,B4,0.17 nM
9,H-H[Aib]EGSFTSELATILDAKAAK([AEEA-KEK-γGlu-C20 diacid])DFIAWLIEHKITD-OH [Compound 68],0.084 nM
10,B5,0.056 nM
11,B6,0.32 nM

# Target: T1, human GLP-2 receptor (hGLP2-R)
# Test: cell-based or functional assay
row,Binder,"EC50 GLP-2 (nM), cAMP AlphaScreen"
1,B1,0.087 nM
2,H-H[Aib]EGTFTSELATILDK([γGlu-C18 diacid])KAARDFIAWLIEHKITD-OH [Compound 6],0.12 nM
3,H-H[Aib]EGTFTSELATILDEQAAK([AEEA-AEEA-KEK-γGlu-C20 diacid])DFIAWLIEHKITD-OH [Compound 67],0.22 nM
4,H-H[Aib]EGSFTSELATILDEQAAK([AEEA-AEEA-KEK-γGlu-C20 diacid])DFIAWLIEHKITD-OH [Compound 66],0.18 nM
5,B2,0.039 nM
6,H-H[Aib]EGTFSSELATILDK([γGlu-C18 diacid])KAARDFIAWLIEHKITD-OH [Compound 4],0.087 nM
7,B3,0.019 nM
8,B4,0.063 nM
9,H-H[Aib]EGSFTSELATILDAKAAK([AEEA-KEK-γGlu-C20 diacid])DFIAWLIEHKITD-OH [Compound 68],0.1 nM
10,B5,0.056 nM
11,B6,0.085 nM
